Laboratory results reported in publication PMC8487046.

How the values were obtained:
[1] = biological target: full‐length SREC‐II at the surface of stably transfected CHO cells (UniProt Q96GP6); test: flow cytometry on cells; SREC-II-overexpressing CHO cells against nontransfected CHO cells, on ice, PBS with 3% BSA; C1q 80 µg/mL (40 min, detected with anti-C1q and Cy-3 anti-mouse antibodies); Alexa Fluor 488-MalBSA or Alexa Fluor 568-CRT at 1, 5 and 10 µg/mL (30 min); MFI ratio
[2] = biological target: acetylated BSA (AcBSA) (bovine (from the name BSA)) (UniProt P02769); test: SPR; AcBSA immobilized (900 RU, CM5, amine coupling; BSA as reference surface), serially diluted SREC-II(44-442) or SR-F1(20-421) injected; TBS-Ca-P; 20 µL/min; 25 °C; global fit, 1:1 Langmuir model; apparent KD

SREC‐II(44‐442), extracellular domain of scavenger receptor expressed by endothelial cells II, sequence (Q96GP6 other isoform, or with tags, fused parts or gaps): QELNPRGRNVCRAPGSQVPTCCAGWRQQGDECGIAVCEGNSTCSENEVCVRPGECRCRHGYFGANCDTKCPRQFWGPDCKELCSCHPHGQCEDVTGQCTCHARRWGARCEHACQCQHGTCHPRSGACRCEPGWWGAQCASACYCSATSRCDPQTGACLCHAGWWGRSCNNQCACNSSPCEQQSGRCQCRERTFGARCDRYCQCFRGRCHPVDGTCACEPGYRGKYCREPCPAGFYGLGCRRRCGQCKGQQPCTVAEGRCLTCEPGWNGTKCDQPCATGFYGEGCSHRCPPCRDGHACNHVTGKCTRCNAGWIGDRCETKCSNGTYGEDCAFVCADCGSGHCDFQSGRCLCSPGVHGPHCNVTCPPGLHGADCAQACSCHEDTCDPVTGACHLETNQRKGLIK
full‐length SREC‐II at the surface of stably transfected CHO cells, sequence (Q96GP6 44-871): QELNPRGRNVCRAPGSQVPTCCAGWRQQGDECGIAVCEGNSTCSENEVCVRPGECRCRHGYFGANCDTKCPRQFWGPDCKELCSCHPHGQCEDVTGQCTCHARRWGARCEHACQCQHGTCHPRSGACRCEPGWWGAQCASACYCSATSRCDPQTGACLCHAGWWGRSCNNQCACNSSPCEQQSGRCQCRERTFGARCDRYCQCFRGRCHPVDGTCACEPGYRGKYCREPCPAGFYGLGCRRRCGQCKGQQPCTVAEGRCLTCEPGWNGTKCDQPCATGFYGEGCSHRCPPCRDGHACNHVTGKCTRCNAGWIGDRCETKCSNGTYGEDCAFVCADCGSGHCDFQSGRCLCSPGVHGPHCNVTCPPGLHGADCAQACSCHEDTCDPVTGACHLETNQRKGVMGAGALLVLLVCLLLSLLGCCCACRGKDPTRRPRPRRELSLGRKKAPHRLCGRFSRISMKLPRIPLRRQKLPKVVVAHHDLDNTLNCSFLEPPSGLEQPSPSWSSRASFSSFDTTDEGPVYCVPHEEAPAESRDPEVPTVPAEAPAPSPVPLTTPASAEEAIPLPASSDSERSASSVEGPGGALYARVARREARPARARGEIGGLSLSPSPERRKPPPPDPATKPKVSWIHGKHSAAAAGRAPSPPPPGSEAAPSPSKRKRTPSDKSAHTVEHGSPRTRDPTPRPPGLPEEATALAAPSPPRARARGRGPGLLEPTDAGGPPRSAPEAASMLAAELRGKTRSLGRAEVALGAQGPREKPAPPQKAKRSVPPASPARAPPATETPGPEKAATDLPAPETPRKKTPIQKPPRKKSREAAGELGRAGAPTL
Alexa Fluor 488‐labelled MalBSA, sequence (P02769 25-607): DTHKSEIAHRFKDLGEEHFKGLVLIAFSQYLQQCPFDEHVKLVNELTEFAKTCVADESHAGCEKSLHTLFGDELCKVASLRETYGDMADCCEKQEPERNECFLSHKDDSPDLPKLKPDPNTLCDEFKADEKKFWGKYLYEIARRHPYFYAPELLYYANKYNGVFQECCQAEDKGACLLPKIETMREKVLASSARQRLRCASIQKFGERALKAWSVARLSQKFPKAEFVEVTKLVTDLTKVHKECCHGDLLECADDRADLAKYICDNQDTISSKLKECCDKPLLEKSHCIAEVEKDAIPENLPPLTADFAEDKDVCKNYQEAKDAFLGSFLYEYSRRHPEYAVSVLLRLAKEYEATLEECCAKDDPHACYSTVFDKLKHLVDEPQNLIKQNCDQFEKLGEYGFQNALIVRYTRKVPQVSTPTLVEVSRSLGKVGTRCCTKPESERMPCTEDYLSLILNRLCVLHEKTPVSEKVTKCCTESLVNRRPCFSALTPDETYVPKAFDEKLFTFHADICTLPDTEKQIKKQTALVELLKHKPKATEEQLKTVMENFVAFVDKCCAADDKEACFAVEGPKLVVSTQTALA

Substance | increase in binding compared with nontransfected CHO cells [1] [%] | Kd [2] [nM] | koff [2] [s⁻¹] | kon [2] [M⁻¹ s⁻¹]
Alexa Fluor 488‐labelled MalBSA (from UniProt P02769 25-607) | 40 to 50 |  |  | 
SREC‐II(44‐442), extracellular domain of scavenger receptor expressed by endothelial cells II (from UniProt Q96GP6 44-442) (domain or fragment) |  | 200 | 0.00015 | 7800
